Data published in paper PMC2834734.

Target: myc tagged version of gp96 (UniProt P14625)
Assay: pull-down; gp96-myc held on anti-myc agarose beads (Pierce c-Myc Tag IP/Co-IP kit); mixed with 10^8 DRP of purified BAAV or AAV4 vector; 4 °C for 1 h; extensive washes with TBS-T in spin columns; bound vector DNA quantified by qPCR; fold change relative to vector bound to GFP beads; n = 3

UniProt P14625, sequence (P14625 22-803): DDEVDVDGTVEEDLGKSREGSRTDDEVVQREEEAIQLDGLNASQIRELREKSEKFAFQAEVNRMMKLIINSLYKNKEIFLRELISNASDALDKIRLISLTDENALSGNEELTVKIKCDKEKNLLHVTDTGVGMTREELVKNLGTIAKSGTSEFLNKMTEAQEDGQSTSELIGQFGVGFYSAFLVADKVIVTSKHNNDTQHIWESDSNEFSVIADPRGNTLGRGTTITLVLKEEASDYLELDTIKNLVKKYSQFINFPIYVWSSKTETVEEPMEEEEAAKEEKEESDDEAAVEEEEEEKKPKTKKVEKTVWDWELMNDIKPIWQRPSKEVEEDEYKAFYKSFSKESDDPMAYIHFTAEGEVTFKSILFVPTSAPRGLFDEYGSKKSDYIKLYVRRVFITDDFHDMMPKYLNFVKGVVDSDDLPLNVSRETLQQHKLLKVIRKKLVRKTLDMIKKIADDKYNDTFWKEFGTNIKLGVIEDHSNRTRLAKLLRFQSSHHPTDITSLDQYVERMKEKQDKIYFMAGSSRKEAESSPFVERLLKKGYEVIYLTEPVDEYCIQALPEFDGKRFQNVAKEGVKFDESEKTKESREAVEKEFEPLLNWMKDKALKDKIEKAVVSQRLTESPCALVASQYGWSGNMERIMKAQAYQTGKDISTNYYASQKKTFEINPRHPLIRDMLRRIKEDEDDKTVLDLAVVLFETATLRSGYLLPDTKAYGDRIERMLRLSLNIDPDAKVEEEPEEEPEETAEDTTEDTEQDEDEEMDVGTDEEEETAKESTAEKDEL

Substance: recombinant bovine adeno-associated virus (BAAV) vector particles containing the CMV-GFP expression cassette (complex)
- fold increase in bound vector against control GFP or TRPC1 beads: 2 to 3 fold
